{"source": "patent US12668821B2", "about": "“Enzymatic production of glucaric acid from glucuronic acid” (THE GOVERNING COUNCIL OF THE UNIVERSITY OF TORONTO, priority 2019, dated 2026)", "molecules": {"B1": {"name": "Y300A: GOOX variant with Y300A relative to SEQ ID NO: 1 (protein, listed as Sarocladium strictum)", "chain": "NSINACLAAADVEFHEEDSEGWEMDGTAFNLRVDYDPVAIAIPRSTEDIAAAVQCGLDAGVQISAKGGGHSYGSYGFGGEDGHLMLELDRMYRVSVDDDNVATIQGGARLGYTALELLDQGNRALTHGTCPAVGIGGHVLGGGYGFATHTHGLTLDWLVGATVVLADASIVHVSKTENADLFWALRGGGGGFAIVSEFEFNTFEAPEIITTYQVTTTWNRKQHVAGLKALQDWAENTMPRELSMRLEINANALNWEGNYFGNAKDLKKVLQPIMKKAGGKSTISKLVETDWYGQINTYLAGADLNITYNYDVHEYFYANSLTAPRLSDEAISAFVDYKFDNSSVRPGRGWWIQWDFHGGKNSALASHSNDETAYAHRDQLWLWQFYDNIYDYENNTSPYPESGFEFMQGFVATIEDTLPEDRKGKYFNYADTTLDKEEAQKLYWRGNLEKLQAIKAKYDPEDVFGNVVSVEPIA", "modifications": "(1)..(206) FAD-binding domain; (207)..(474) substrate-binding domain"}, "B2": {"name": "AxyAgu115A: GH115 α-glucuronidase from Amphibacillus xylanus, SEQ ID NO: 4 (protein, listed as Amphibacillus xylanus)", "chain": "MDFTLNQEMLMTDTKSGALFYQEEEALSGVRKIANKVMHDVELVFGYQPEATKDRDMLSRHAVLYGTVGHSPLLDELNKKELIDLTEIAGKREVFLFQVVDQPIQGVEKALVIAGSDKRGTIYGLFHLSEKLGVSPLVDWSGVLPARKESFSLKGDYKYVSKEPSVKYRGFFINDEWPAFGNWSAKNFGGFNAEMYDHVFELLLRLKGNYLWPAMWSARFNDDGPGLANVELADEYGVIMGASHHEPCLRYGEEYKYLRGPDSIYGDAWNFITNREGITKFWEDGLKRTGHFENIITIGMRGEADTKIMGEDATLEDNINLLRDVIQTQNKLIKEHVNPNLKEVPRMLALYKEVEPFFYGDENTPGLINSEELEDVILMLCDDNHGNLRTLPTEDMRKHSGGYGMYYHFDYHGGPVSYEWINSSYLPKIWEQMTMAYDFGVRDLWIVNVGDIATQELPLSFFLDLAYDFDKWGTNAINKTDDYTKQWIEQQFAGVFNLEQKDKVFELLNGYTKIAHNRRPEAMNVDVYHPVNYHETDQLLDRIDHLLGLAEELYQEVDQQHFTAYFALVYYPTVGNLNLQKMWLLNGKNKYAAQLNLIEANKLAEQVKACLKRDQEIVDEYHTIADGKFYGMGLSEHIGFVHWNEDENKNPVLSYVLPVNKPRLLVSIDGTELRSEGSPWHVNTLPLVDFLEPDVNQASFTISSVSEKKAEYHISTDQDWLSCSAANGVLDGKNKLSETIHVFVDRDGLADQAEGRITVKTPVGKVTIVVPVVNNDFTNYPDMTFVDTKGYISIEAEHFATQKATENLDGTLNRFEVLDGYGKTLSAIKAFPTDTHYQVGKDAPFVEYHFVTQEAGVYELEFYLQPSNPVTREGTMYAGIQVNENDVDVINVLPDGYHVDGPHWGIDVINNIRTTKTKITCEQGLNKLRIYAVSPGFALEKIVIYPDGKKLANSYLGPNETYYVGR"}}, "key": {"[1]": {"details": "200 mM H2O2; cited from earlier work"}, "[2]": {"details": "Foumani et al., 2011; read-out: Km on glucose; cited from earlier work"}, "[3]": {"details": "200 mM H2O2; cited from earlier work", "remark": "listed apart in the source"}, "[4]": {"test": "MeGlcA oxidation by GOOX-Y300A, substrate consumption by HPAEC-PAD", "format": "biochemical", "details": "after 24 h, 300 mM Tris buffer, 60 mM MeGlcA, based on substrate consumption", "source_text": "Reaction samples were vacuum-filtered using 0.22-μm, PVDF filter plates (Millipore, USA) with a Tecan liquid handler (500 mbar) (Tecan Trading AG, Switzerland). The flow-through was collected to Nunc™ 96-well polypropylene microplates (Thermo Fisher Scientific, USA), and covered with Nunc™ 96-well silicone cap mats. The presence of acidic sugars was detected using an ICS5000 HPAEC-PAD system (Dionex, USA) with a CarboPac PA1 (2×250 mm) analytical column (Dionex, USA). The HPAEC-PAD samples were eluted at 0.25 mL/min using NaOAc gradient (0-0.5 M) in 0.1 M NaOH. Chromatograms were analyzed using Chromeleon 7.2 (Dionex, USA).\nIn an attempt to improve the oxidation of GOOX-Y300A, the ionic strength of the Tris buffer was increased to 300 mM and the concentration of MeGlcA was brought up to 60 mM, higher than its Km. NSI-MS confirmed an increase in the intensity ratio of methyl glucaric acid over MeGlcA (FIG. 9). […] Provided that a similar xylan source was used, the conversion yield reported from the 3-enzyme pathway by Lee et al. (2016) (Lee et al., 2016a) was estimated ca. 20%, as determined by measuring NADH absorbance at 340 nm."}, "[5]": {"test": "Kinetics of GOOX-Y300A on MeGlcA (H2O2 colorimetric assay)", "format": "biochemical", "details": "up to 60 mM MeGlcA, 0.3 M Tris buffer pH 8.0, 40° C.", "procedure": "(§1) The specific activity of GOOX-Y300A (16 nM) on MeGlcA and GlcA (1 mM) was measured in 50 mM Tris buffer pH 8.0 at 40° C. The amount of methyl glucaric acid was determined by measuring the release of H2O2 using a previously published colorimetric assay (Lin et al., 1991). The kinetics of GOOX-Y300A on these acidic sugars were measured at the same condition, but using up to 60 mM MeGlcA and GlcA and in 0.3 M Tris buffer pH 8.0.\nThere was a dose response for the production of methyl glucaric acid, as the relative abundance of methyl glucaric acid increased when the substrate concentration was raised from 1 mM to 10 mM."}, "[6]": {"test": "Activity screening of GOOX variants and glucose oxidase on GlcA", "format": "biochemical", "details": "enzyme 16 nM, 37° C., 10 mM GlcA (FIG. 11 legend; b102 says 100 mM), 100 mM Tris pH 8.0 (GOOX variants) or 50 mM sodium acetate pH 5.0 (GO)", "procedure": "(§2) FIG. 11: Activity screening of GOOX variants and glucose oxidase (GO) on GlcA and MeGlcA substrates. The enzymes (16 nM) were assayed at 37° C. with 10 mM GlcA and 1 mM MeGlcA in 100 mM Tris buffer pH 8.0 (for GOOX variants) or 50 mM sodium acetate pH 5.0 (for GO). The dotted line indicates the activity of GOOX-VN for MeGlcA for ease of comparison. “CtCBM22A-wtGOOX” and “CtCBM22A-Y300A” represent fusion proteins where the C terminus of the xylan-binding protein CtCBM22A (described in Vuong and Master, 2014) is fused to the N terminus GOOX.\nas §1"}, "[7]": {"test": "Activity screening of GOOX variants and glucose oxidase on MeGlcA", "format": "biochemical", "procedure": "as §2, §1"}, "[8]": {"test": "H2O2 inhibition assay of AxyAgu115A on glucuronoxylan", "format": "biochemical, beechwood", "procedure": "FIG. 10: HPAEC-PAD analyses of H2O2 effects on AxyAgu115A activity and MeGlcA degradation.\nAxyAgu115A (10 μg/mL) was incubated with 1% glucuronoxylan in 50 mM Tris buffer pH 8.0 in the presence of various H2O2 concentrations (0.01-100 mM). MeGlcA (1 mM) was also incubated with the same H2O2 concentrations. The reactions were kept in the dark at 40° C. for 16 h in a thermomixer (Eppendorf, USA). Catalase (200 μg/mL) was then added, and the reactions were kept incubating for another 30 min to remove H2O2 before HPAEC-PAD analysis.\nThe MeGlcA concentration released by AxyAgu115A from 6% glucuronoxylan after 16 h was around the Km of GOOX-Y300A on this acidic sugar, supporting the usage of GOOX-Y300A and AxyAgu115 in a one-pot reaction. […] Thus, a one-pot sequential reaction was performed where GOOX-Y300A was added to the reaction after pre-hydrolysis of glucuronoxylan by AxyAgu115A for 4 h. Following 16 h of incubation with GOOX-Y300A, methyl glucaric acid yields were similar to those achieved using the two-pot sequential system described above (i.e., 60% yield as confirmed by LC-MS)."}, "[9]": {"test": "Release of MeGlcA from glucuronoxylan by AxyAgu115A (HPAEC-PAD)", "format": "biochemical, beechwood", "details": "from 1.5 g glucuronoxylan, calculated on the MeGlcA standard curve", "procedure": "Glucuronoxylan (6%) was incubated with AxyAgu115A (10 μg/mL) and GOOX-Y300A (10 μg/mL) in 100 mM Tris buffer pH 8.0 at 40° C. in a rotator oven for up to 72 h. The reactions were then vacuum-filtered using 96-well filter plates (0.22-μm PVDF membrane) (Millipore, USA) in a Tecan liquid handler (500 mbar) (Tecan Trading AG, Switzerland). Enzymatic products in the flow-through were confirmed by mass spectrometry and quantified by HPAEC-PAD analysis.\nReaction samples were vacuum-filtered using 0.22-μm, PVDF filter plates (Millipore, USA) with a Tecan liquid handler (500 mbar) (Tecan Trading AG, Switzerland). […] The presence of acidic sugars was detected using an ICS5000 HPAEC-PAD system (Dionex, USA) with a CarboPac PA1 (2×250 mm) analytical column (Dionex, USA). […] Chromatograms were analyzed using Chromeleon 7.2 (Dionex, USA).\nAxyAgu115A was produced with high purity (FIG. 2). The treatment of glucuronoxylan with AxyAgu115A released only MeGlcA, as analyzed by HPAEC-PAD (FIG. 3), and no additional release of MeGlcA was seen after 16 h. […]\nThe concentration of MeGlcA released from 1.5 g glucuronoxylan was 21.6±1.2 mM, calculated by on the MeGlcA standard curve (FIG. 5) whereas the estimated molar concentration of MeGlcA, based on a previous analysis of glucuronoxylan composition (Teleman et al., 2002), was 24.4 mM. […]"}}, "note": "Like-named read-outs stand apart in the source and are kept apart here."}
{"molecule": "B1", "values": [{"measurement": "activity retained on glucose", "setting": "[1]", "value": "more than 50%"}, {"measurement": "Km", "setting": "[2]", "value": 8.1, "unit": "mM"}, {"measurement": "activity retained on cellobiose", "setting": "[3]", "value": 100, "unit": "%"}, {"measurement": "efficiency on MeGlcA oxidation", "setting": "[4]", "value": 62, "unit": "%"}, {"measurement": "Km", "setting": "[5]", "value": "21 ± 2", "unit": "mM"}, {"measurement": "kcat on MeGlcA", "setting": "[5]", "value": "0.0152 ± 0.001", "unit": "s⁻¹"}, {"measurement": "nmol oxidized GlcA Mean", "setting": "[6]", "value": -0.03566, "unit": "nmol"}, {"measurement": "specific activity on MeGlcA (in words)", "setting": "[7]; among GOOX variants, FIG. 7", "value": "highest specific activity"}, {"measurement": "nmol oxidized MeGlcA Mean", "setting": "[7]; enzyme 16 nM, 37° C., 1 mM MeGlcA (FIG. 11 legend; b102 says 10 mM), 100 mM Tris pH 8.0 (GOOX variants) or 50 mM sodium acetate pH 5.0 (GO)", "value": 2.5, "unit": "nmol"}, {"measurement": "activity with MeGlcA as substrate (in words)", "setting": "[7]; screening, compared with wtGOOX", "value": "improved activity over wtGOOX"}]}
{"molecule": "B2", "values": [{"measurement": "activity lost in the presence of H2O2", "setting": "[8]; 10 mM H2O2", "value": "approximately half of AxyAgu115A activity was lost"}, {"measurement": "H2O2 concentration at which activity was inhibited", "setting": "[8]; 1% glucuronoxylan, 50 mM Tris pH 8.0, 40° C., 16 h", "value": "greater than 1 mM"}, {"measurement": "effect of higher H2O2 concentrations on MeGlcA released from glucuronoxylan", "setting": "[8]; peak area, HPAEC-PAD, FIG. 10A", "value": "lowered the amount of MeGlcA released"}, {"measurement": "concentration of MeGlcA released from glucuronoxylan", "setting": "[9]", "value": "21.6 ± 1.2", "unit": "mM"}]}
